Among the data in US20100322957A1 are IL-1β secretion (ELISA) by LPS-primed BMM one hour after protein transfection values, retold here.

The target of the test is NLRC4 (mouse) (UniProt Q3UP24).

As to “PrgJ (purified, histidine-tagged) (from UniProt P41785) (ligand)”, the IL-1β secretion (ELISA) by LPS-primed BMM one hour after protein transfection turned out to be 800 pg/mL.
The value for “FliC (purified, histidine-tagged) (from UniProt P06179) (ligand)” was 800 pg/mL.
